Laboratory results reported in US20230220016A1.

Biological target: 434cI-SH2 (SH2 domain of ABL1 kinase fused to 434 cI repressor) (434 phage) (UniProt P16117)
Assay: cell-based or functional assay

transcriptional activation, bacterial 2-hybrid, wild type PlacZ promoter: 17 fold
Substance: RpoZ-HA4 (monobody HA4 fused to RpoZ) (from UniProt P0A800 1-91) (designed binder)
transcriptional activation, bacterial 2-hybrid, sensitized promoter PlacZ-opt: 200 fold
